# Assay results: patent US20090068103
# Target: Tenascin-C (TN-C) (Homo sapiens) (UniProt P24821)
# Assay: FP
# Settings: 5'-C6 amine conjugated to MAG2-DO3A chelator; (CH2CH2O)6 spacer between GGGAGGACG and CGUCGC; 3'-3'-T cap; nitrocellulose filter binding, TN-C titrated 1.25e-7 to 6.35e-12 M
# Sequence of Tenascin-C (TN-C) (Homo sapiens) (P24821 23-2201): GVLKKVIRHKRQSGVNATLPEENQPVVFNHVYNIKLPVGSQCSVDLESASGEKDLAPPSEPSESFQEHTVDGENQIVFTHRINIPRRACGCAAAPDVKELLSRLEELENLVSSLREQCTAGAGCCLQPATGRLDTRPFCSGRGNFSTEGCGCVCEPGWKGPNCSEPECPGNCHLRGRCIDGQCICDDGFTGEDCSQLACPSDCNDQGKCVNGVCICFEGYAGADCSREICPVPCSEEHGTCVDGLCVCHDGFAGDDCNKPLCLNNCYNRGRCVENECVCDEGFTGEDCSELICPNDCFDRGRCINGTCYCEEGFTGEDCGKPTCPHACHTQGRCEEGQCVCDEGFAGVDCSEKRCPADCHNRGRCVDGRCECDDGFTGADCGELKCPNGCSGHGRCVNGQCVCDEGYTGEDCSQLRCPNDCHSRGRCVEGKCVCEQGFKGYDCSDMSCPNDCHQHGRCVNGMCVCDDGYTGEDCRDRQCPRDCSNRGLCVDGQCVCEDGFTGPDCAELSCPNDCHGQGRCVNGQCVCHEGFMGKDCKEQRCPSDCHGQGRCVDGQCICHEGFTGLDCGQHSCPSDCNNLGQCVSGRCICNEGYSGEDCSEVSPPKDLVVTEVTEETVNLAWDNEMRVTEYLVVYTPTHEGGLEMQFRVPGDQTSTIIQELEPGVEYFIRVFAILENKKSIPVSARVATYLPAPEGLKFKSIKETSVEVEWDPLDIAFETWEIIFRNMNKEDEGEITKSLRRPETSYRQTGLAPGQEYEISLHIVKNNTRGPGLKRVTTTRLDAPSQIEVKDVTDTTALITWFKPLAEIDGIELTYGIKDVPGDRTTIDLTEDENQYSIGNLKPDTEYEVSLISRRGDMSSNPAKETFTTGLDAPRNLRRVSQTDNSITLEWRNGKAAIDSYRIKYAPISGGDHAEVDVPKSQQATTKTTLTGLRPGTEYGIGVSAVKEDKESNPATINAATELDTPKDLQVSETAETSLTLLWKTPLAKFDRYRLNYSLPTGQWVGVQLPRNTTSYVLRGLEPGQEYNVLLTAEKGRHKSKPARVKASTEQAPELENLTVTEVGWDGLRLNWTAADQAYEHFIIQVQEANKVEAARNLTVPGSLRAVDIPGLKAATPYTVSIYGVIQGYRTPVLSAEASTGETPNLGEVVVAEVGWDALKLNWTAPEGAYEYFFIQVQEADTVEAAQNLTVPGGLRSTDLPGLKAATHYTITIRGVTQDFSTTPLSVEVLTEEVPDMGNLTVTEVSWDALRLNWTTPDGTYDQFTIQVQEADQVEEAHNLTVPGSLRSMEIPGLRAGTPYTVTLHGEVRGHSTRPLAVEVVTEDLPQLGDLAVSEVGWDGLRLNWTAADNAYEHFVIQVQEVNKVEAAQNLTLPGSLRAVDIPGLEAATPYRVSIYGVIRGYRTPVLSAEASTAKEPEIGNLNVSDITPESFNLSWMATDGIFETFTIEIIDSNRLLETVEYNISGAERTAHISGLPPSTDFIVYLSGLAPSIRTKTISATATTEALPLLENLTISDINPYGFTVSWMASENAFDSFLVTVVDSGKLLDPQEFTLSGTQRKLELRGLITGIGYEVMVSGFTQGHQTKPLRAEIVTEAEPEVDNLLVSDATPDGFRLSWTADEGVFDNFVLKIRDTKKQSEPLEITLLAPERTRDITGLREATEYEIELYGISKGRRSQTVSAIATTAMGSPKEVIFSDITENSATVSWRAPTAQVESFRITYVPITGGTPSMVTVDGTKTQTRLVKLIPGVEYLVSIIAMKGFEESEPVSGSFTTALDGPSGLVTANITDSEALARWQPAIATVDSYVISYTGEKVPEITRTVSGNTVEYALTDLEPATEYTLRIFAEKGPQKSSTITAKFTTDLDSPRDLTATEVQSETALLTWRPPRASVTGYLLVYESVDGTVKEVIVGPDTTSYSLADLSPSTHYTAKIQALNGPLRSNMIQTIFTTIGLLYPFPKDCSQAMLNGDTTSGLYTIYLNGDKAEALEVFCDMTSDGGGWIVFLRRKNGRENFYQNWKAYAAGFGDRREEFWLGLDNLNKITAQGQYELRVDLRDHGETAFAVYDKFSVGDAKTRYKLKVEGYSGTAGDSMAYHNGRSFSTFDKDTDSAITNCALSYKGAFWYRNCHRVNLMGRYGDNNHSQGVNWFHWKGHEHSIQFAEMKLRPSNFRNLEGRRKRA
sequence,measurement,value
GGGAGGACGCGUCGCCGUAAUGGAUGUUUUGCUCCCUG [111In-TTA1-MAG2-DO3A],Kd,1 nM
